Laboratory results from patent US20160083733.

Experiments:
[1] = target: GST-PDX1 T11A (bacterially purified), P52946
[2] = target: GST-PDX1 T155A (bacterially purified), P52946
[3] = target: GST-PDX1 T231A (bacterially purified), P52946
[4] = target: GST-PDX1 T126A (bacterially purified), P52946
[5] = target: GST-PDX1 WT (bacterially purified), P52946
[6] = target: Purified recombinant human PDX-1 (Abcam), P52945
[7] = target: GST-PDX1 T152A (bacterially purified), P52946
[8] = target: GST-PDX1 T214A (bacterially purified), P52946
Chain of GST-PDX1 T214A (bacterially purified), P52946 (P52946 whole entry T214A, looked up): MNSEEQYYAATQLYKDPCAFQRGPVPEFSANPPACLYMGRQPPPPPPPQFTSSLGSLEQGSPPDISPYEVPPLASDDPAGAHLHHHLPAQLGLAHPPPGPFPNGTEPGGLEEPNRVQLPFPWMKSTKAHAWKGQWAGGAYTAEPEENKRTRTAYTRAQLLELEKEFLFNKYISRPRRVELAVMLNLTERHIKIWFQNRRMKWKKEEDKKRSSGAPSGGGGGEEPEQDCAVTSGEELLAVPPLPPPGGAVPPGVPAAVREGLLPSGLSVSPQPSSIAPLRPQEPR

Chain of GST-PDX1 T155A (bacterially purified), P52946 (P52946 whole entry T155A, looked up): as the sequence (P52946 whole entry T214A, looked up) above, with T155A, A214T counted along it
Chain of GST-PDX1 T126A (bacterially purified), P52946 (P52946 whole entry T126A, looked up): as the sequence (P52946 whole entry T214A, looked up) above, with T126A, A214T counted along it
Chain of Purified recombinant human PDX-1 (Abcam), P52945 (P52945 whole entry): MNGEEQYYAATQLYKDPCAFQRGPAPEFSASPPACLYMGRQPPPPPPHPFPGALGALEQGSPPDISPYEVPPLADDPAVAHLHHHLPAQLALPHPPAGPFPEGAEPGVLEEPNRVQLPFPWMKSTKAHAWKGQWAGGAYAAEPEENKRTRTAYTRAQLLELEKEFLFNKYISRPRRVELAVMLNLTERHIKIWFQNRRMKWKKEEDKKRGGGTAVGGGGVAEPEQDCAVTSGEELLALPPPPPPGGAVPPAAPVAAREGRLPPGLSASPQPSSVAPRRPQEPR
Chain of GST-PDX1 WT (bacterially purified), P52946 (P52946 whole entry): as the sequence (P52946 whole entry T214A, looked up) above, with A214T counted along it
Chain of GST-PDX1 T152A (bacterially purified), P52946 (P52946 whole entry T152A, looked up): as the sequence (P52946 whole entry T214A, looked up) above, with T152A, A214T counted along it
Chain of GST-PDX1 T11A (bacterially purified), P52946 (P52946 whole entry T11A, looked up): as the sequence (P52946 whole entry T214A, looked up) above, with T11A, A214T counted along it
Chain of GST-PDX1 T231A (bacterially purified), P52946 (P52946 whole entry T231A, looked up): as the sequence (P52946 whole entry T214A, looked up) above, with A214T, T231A counted along it

B1: Purified human active MST1 (Upstate Biotechnology) (protein)
chain: METVQLRNPPRRQLKKLDEDSLTKQPEEVFDVLEKLGEGSYGSVYKAIHKETGQIVAIKQVPVESDLQEIIKEISIMQQCDSPHVVKYYGSYFKNTDLWIVMEYCGAGSVSDIIRLRNKTLTEDEIATILQSTLKGLEYLHFMRKIHRDIKAGNILLNTEGHAKLADFGVAGQLTDTMAKRNTVIGTPFWMAPEVIQEIGYNCVADIWSLGITAIEMAEGKPPYADIHPMRAIFMIPTNPPPTFRKPELWSDNFTDFVKQCLVKSPEQRATATQLLQHPFVRSAKGVSILRDLINEAMDVKLKRQESQQREVDQDDEENSEEDEMDSGTMVRAVGDEMGTVRVASTMTDGANTMIEHDDTLPSQLGTMVINAEDEEEEGTMKRRDETMQPAKPSFLEYFEQKEKENQINSFGKSVPGPLKNSSDWKIPQDGDYEFLKSWTVEDLQKRLLALDPMMEQEIEEIRQKYQSKRQPILDAIEAKKRRQQNF
[1]
  in vitro kinase assay, pan-phospho threonine western blot: With the exception of T11A, PDX1-WT and other mutants were efficiently threonine phosphorylated
[2]
  in vitro kinase assay, pan-phospho threonine western blot: With the exception of T11A, PDX1-WT and other mutants were efficiently threonine phosphorylated
[3]
  in vitro kinase assay, pan-phospho threonine western blot: With the exception of T11A, PDX1-WT and other mutants were efficiently threonine phosphorylated
[4]
  in vitro kinase assay, pan-phospho threonine western blot: With the exception of T11A, PDX1-WT and other mutants were efficiently threonine phosphorylated
[5]
  in vitro kinase assay, pan-phospho threonine western blot: With the exception of T11A, PDX1-WT and other mutants were efficiently threonine phosphorylated
[6]
  in vitro kinase assay (32P autoradiography; western blot with phospho-specific antibody): In vitro kinase assays showed that MST1 efficiently phosphorylated PDX1
[7]
  in vitro kinase assay, pan-phospho threonine western blot: With the exception of T11A, PDX1-WT and other mutants were efficiently threonine phosphorylated
[8]
  in vitro kinase assay, pan-phospho threonine western blot: With the exception of T11A, PDX1-WT and other mutants were efficiently threonine phosphorylated
